Data: PMC6075780, “Interaction of lipoprotein QseG with sensor kinase QseE in the periplasm controls the phosphorylation state of the two-component system QseE/QseF in Escherichia coli” (PLoS Genetics, 2018)

T1: QseG-Strep (E. coli K-12, UniProt P0AD44 26-237, Cys26 predicted by the paper to be lipidated)
T1 sequence (looked up): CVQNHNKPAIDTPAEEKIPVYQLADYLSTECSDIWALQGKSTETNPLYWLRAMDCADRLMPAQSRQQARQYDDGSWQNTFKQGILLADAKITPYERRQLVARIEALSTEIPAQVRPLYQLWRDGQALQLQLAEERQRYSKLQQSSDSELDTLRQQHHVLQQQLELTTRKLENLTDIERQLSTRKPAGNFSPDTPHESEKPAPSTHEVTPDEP

B1: QseE-S58N-3×FLAG (natural protein, E. coli K-12, UniProt P52101 1-475, looked up)
chain: MKRWPVFPRSLRQLVMLAFLLILLPLLVLAWQAWQSLNALSDQAALVNRTTLIDARRNEAMTNAALEMERSYRQYCVLDDPTLAKVYQSQRKRYSEMLDAHAGVLPDDKLYQALRQDLHNLAQLQCNNSGPDAAAAARLEAFASANTEMVQATRTVVFSRGQQLQREIAERGQYFGWQSLVLFLVSLVMVLLFTRMIIGPVKNIERMINRLGEGRSLGNSVSFSGPSELRSVGQRILWLSERLSWLESQRHQFLRHLSHELKTPLASMREGTELLADQVVGPLTPEQKEVVSILDSSSRNLQKLIEQLLDYNRKQADSAVELENVELAPLVETVVSAHSLPARAKMMHTDVDLKATACLAEPMLLMSVLDNLYSNAVHYGAESGNICLRSSLHGARVYIDVINTGTPIPQEERAMIFEPFFQGSHQRKGAVKGSGLGLSIARDCIRRMQGELYLVDESGQDVCFRIELPSSKNTK
notes: Histidine kinase QseE of E. coli K-12 with the S58N exchange in the periplasmic loop; also called QseE-S58N variant; source: E. coli strain Z970, from plasmid pYG318-S58N, in lysate; not shown: 3×FLAG, C-terminal, kept

Key:
[1] = target: T18-QseE (pYG246); assay: BACTH assay (bacterial two-hybrid, β-galactosidase read-out), homodimerization; details: reporter strain BTH101; plasmids pYG246/pYG199_TM1; parent: est. 3600; read off a plot
[2] = target: T1, QseG-Strep; assay: cell-based or functional assay
[3] = target: T1, QseG-Strep; assay: pull-down; bait and prey from two compatible plasmids in E. coli Z970 (1 mM IPTG, 0.2% arabinose, 3 h); cleared lysates with MagStrep type3 XT beads 60 min at 4°C, washed 4× with buffer W; Western blot; details: partners not purified

| Molecule | response [1] | fold decrease in glmY'-lacZ β-galactosidase activity of the ΔqseE strain Z970 complemented with plasmid-encoded QseE-S58N (pYG221-S58N), against wild-type QseE (pYG221) [2] | fold reduction of co-purifying protein against wild-type QseE-3×FLAG [3] |
| --- | --- | --- | --- |
| T25-QseE (from UniProt P52101) F19L; L21H; I22R; L23P; L24P | 1000 Miller units |  |  |
| B1 |  | 3 fold | ~3 fold |
